Data set [1] addresses T1, BlasaTA (transaminase from Blastococcus saxobsidens) (Blastococcus saxobsidens, UniProt H6RQF3).
T1 construct: gene BLASA_4517; codon-optimized gene in modified pET-21d; N-terminal His6 tag with TEV site kept for kinetics, cut for crystals; E. coli Rosetta (DE3) pLysS; homodimer ~60 kDa
Put plainly: half-reaction with PLP form, absorbance at […] nm, kobs fit. The data set is classed as biochemical. The conditions noted are these: pH 8.0, 50 mM K-phosphate, 30 °C, single half-reaction, read-out: 50 mM K-Phosphate Buffer, pH 8.0 / KD.

The target in data set [2] is Recombinant D-amino acid transaminase from Blastococcus saxobsidens (BlasaTA), (His)6-tagged (Blastococcus saxobsidens (strain DD2)). Put plainly: SEC; gel filtration of the purified enzyme; molecular weight approximately 60 kDa against 29.1 kDa for the subunit; conditions not shown.
Substrate in data set [3]: C[C@@H](N)C(=O)O
Nature of the data set: purified protein. As to conditions: co-substrate 5 mM α-ketoglutarate, pH 8.0, 50 mM K-phosphate, 40 °C.

Substrate in data set [4]: CC(=O)C(=O)O
Put plainly: purified protein. The data set is classed as biochemical, Blastococcus saxobsidens. As to conditions: co-substrate 15 mM D-glutamate, pH 8.0, 50 mM K-phosphate, 40 °C.

Substrate in data set [5]: N[C@H](CCC(=O)O)C(=O)O
Put plainly: purified protein. The data set is classed as biochemical, Blastococcus saxobsidens. The conditions noted are these: co-substrate 15 mM pyruvate, pH 8.0, 50 mM K-phosphate, 40 °C.

Substrate in data set [6]: O=C(O)CCC(=O)C(=O)O
Nature of the data set: purified protein. The data set is classed as biochemical, Blastococcus saxobsidens. As to conditions: co-substrate 25 mM D-alanine, pH 8.0, 50 mM K-phosphate, 40 °C.

Substrate in data set [7]: C[C@@H](N)c1ccccc1
Put plainly: purified protein. Type of data set: biochemical, Blastococcus saxobsidens. As to conditions: co-substrate 2 mM α-ketoglutarate, pH 9.0, 50 mM CHES, 30 °C.

Substrate in data set [8]: CC(C)CC(=O)C(=O)O
Nature of the data set: purified protein. Type of data set: biochemical, Blastococcus saxobsidens. As to conditions: co-substrate 25 mM D-alanine, pH 8.0, 50 mM K-phosphate, 40 °C.

As for `C[C@@H](N)c1ccccc1` [(R)-1-Phenylethyl amine], in data set [1], the Kd was 19 ± 2 mM.

For the molecule “Recombinant D-amino acid transaminase from Blastococcus saxobsidens (BlasaTA), (His)6-tagged (enzyme)”, the stoichiometry N in data set [2] came to 2.

Turning to `N[C@H](Cc1ccccc1)C(=O)O` [D-Phenylalanine], the Kd in data set [1] was found to be 32 ± 2 mM.

B1: BlasaTA (transaminase from Blastococcus saxobsidens) (Blastococcus saxobsidens DD2) (protein)
chain: MNEQRSVAVWRDGAAVTVPAHQPVVTAFDLGLGRGDGIFESVAVVAGRTPHLAAHLTRLTRSAALLGLPAPGDQAWMEMVAAVLADWPAALEGVCRLFLTRGLGDGTPPTALALLAPVPADTLRQRAEGISVATLGLGVPADFRAGAPWLLGGAKTLSYAVNMAAQRHAHDLGADDVVFTSLEGRLLEGPTSTVVWAAGGTLHTPPVETGILPGTTQARLFTAAAADGWPTSVTPGTVDDLHAADAVWLLSGVRGAAVVHTVDGVRRGDGDLSRRVRELLAR
notes: codon-optimized gene in modified pET-21d; N-terminal His6 tag with TEV site kept for kinetics, cut for crystals; E. coli Rosetta (DE3) pLysS; homodimer ~60 kDa
Turning to B1, the Km was 2000 ± 300 µM in the data set “purified protein [3]”; 1600 ± 100 µM in the data set “purified protein [4]”; 400 ± 60 µM in the data set “purified protein [5]”; 530 ± 60 µM in “purified protein [6]”; 6600 ± 400 µM in “purified protein [7]”; 45000 ± 2000 µM in the data set “purified protein [8]”. Moreover, the kcat turned out to be 8.1 s⁻¹ in the data set “purified protein [3]”; 7.5 ± 0.3 s⁻¹ in the data set “purified protein [4]”; 7.5 ± 0.3 s⁻¹ in “purified protein [5]”; 8.1 ± 0.3 s⁻¹ in “purified protein [6]”; 0.053 ± 0.002 s⁻¹ in the data set “purified protein [7]”; 0.19 ± 0.004 s⁻¹ in “purified protein [8]”. The kcat/Km in “purified protein [3]” worked out at 4000 M⁻¹ s⁻¹; in the data set “purified protein [4]” it was 4700 ± 500 M⁻¹ s⁻¹; in the data set “purified protein [5]”, 18800 ± 3600 M⁻¹ s⁻¹; in “purified protein [6]”, 15300 ± 2300 M⁻¹ s⁻¹; in the data set “purified protein [7]”, 8 ± 0.8 M⁻¹ s⁻¹; in “purified protein [8]” it was 4.2 ± 0.3 M⁻¹ s⁻¹.

For orientation: stoichiometry N means the number of molecules, sites or subunits per partner or assembly. One may read the Km as the concentration of substrate that gives half-maximal velocity. By kcat is commonly meant the maximal rate divided by the concentration of active sites. For orientation: kcat/Km means the turnover number divided by the Michaelis constant.

(Values after paper PMC10671532, “Expanded Substrate Specificity in D-Amino Acid Transaminases: A Case Study of Transaminase from Blastococcus saxobsidens” (International Journal of Molecular Sciences, 2023).)
